Patent publication US20120027785A1

T1: CdtA-CdtC heterodimer (wild-type CdtA-His6 and CdtC-His6)
T1 chain 1: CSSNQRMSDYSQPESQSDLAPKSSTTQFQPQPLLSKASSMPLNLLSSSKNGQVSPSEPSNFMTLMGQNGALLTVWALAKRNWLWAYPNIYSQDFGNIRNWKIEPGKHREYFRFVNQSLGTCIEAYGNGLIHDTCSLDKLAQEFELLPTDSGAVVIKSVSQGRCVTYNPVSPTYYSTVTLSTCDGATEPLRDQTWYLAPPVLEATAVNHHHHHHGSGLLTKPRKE
T1 chain 2: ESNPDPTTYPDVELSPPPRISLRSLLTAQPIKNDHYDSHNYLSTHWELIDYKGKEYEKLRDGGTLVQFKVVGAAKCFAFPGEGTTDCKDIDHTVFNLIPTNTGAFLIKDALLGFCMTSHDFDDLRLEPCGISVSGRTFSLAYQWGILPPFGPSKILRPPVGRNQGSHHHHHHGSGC

B1: CdtB/DNase I hybrid protein (from pETBDN2) (protein)
chain: NLSDFKVATWNLQGSSAVNESKWNINVRQLLSGEQGADILMVQEAGSLPSSAVRTSRVIQHGGTPIEEYTWNLGTRSRPNMVYIYYSRLDVGANRVNLAIVSRRQADEAFIVHSDSSVLQSRPAVGIRIGTDVFFTVHAAPGDAVAEIDALYDVYLDVQEKWGLEDVMLMGDFNAGCSYVRPSQWSSIRLWTSPTFQWLIPDSADTTATPTHCAYDRIVVAGMLLRGAVVPDSALPFNFQAANGLSDQLAQAISDHYPVEVMLKHHHHHHHMLEDPAANKAQKK

What was measured:
[1] = target: human CD133 (prominin-1) (human) (UniProt O43490); experiment: flow cytometry on RPMI 2650 cells, directly PE-conjugated antibody
[2] = target: T1, CdtA-CdtC heterodimer (wild-type …)

Molecule	median fluorescence (MF) [1]	DNA nicking activity of reconstituted heterotrimer preparations [2]
mouse anti-human CD133/1 MAb conjugated to PE (Miltenyi Biotec) (antibody)	64.8	
B1		reconstituted heterotrimer preparations containing the CdtB/DNase I hybrid protein failed to convert supercoiled DNA to linear and relaxed forms
